Results on 15 molecules are retold here after patent US20220041658A1 (PROTAGONIST THERAPEUTICS, published 2022).

The target of the test is T1, interleukin-23 receptor (IL-23R) (human, UniProt Q5VWK5 24-629).
T1 sequence (looked up): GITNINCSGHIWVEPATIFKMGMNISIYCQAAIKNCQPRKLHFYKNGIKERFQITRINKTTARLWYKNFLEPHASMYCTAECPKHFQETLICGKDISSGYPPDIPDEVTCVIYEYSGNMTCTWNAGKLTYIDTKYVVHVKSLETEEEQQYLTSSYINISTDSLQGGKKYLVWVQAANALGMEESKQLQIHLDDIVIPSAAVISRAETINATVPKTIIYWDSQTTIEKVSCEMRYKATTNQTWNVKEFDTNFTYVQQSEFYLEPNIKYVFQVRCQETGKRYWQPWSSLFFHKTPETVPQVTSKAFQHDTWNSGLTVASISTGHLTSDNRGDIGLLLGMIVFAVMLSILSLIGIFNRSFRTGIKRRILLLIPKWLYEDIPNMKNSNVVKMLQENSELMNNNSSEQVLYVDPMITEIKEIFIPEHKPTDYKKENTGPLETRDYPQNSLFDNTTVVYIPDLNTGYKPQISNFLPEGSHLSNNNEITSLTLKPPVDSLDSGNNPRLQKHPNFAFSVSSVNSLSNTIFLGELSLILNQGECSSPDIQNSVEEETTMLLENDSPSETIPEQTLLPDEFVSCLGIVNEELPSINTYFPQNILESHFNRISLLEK
Description: cell-based or functional assay.

Positions of bridges follow the written chain, without caps; N, C: chain ends. Non-standard residues stand in square brackets, D forms with d. Trp(7-Me) = Cc1cccc2c(C[C@H](N)C(=O)O)c[nH]c12; 2Nal = N[C@@H](Cc1ccc2ccccc2c1)C(=O)O; AEF = NCCOc1ccc(C[C@H](N)C(=O)O)cc1; Cit = NC(=O)NCCC[C@H](N)C(=O)O; Pen = CC(C)(S)[C@H](N)C(=O)O; αMeK = C[C@](N)(CCCCN)C(=O)O; βAla = NCCC(=O)O

B1: Peptide of SEQ ID NO: 282 (peptide)
peptide: XNTXQXXXXENX
modifications: Ac-[Pen]-N-T-[W(7-Me)]-Q-[Pen]-Phe[4-(2-aminoethoxy)]-[2-Nal]-[a-MeLys]-E-N-[bA]-NH2; Pen-Pen disulfide
As for B1, the “pStat3 HTRF IC50” value stood at 1.37 nM.

B2: Peptide of SEQ ID NO: 266 (peptide)
peptide: Ac-[Pen]NT[Trp(7-Me)][Cit][Pen][AEF][2Nal][αMeK]K(Ac)NY-NH2
modifications: disulfide 1-6
SMILES: CC(=O)NCCCC[C@H](NC(=O)[C@](C)(CCCCN)NC(=O)[C@H](Cc1ccc2ccccc2c1)NC(=O)[C@H](Cc1ccc(OCCN)cc1)NC(=O)[C@H]1NC(=O)[C@H](CCCNC(N)=O)NC(=O)[C@H](Cc2c[nH]c3c(C)cccc23)NC(=O)[C@H]([C@@H](C)O)NC(=O)[C@H](CC(N)=O)NC(=O)[C@@H](NC(C)=O)C(C)(C)SSC1(C)C)C(=O)N[C@@H](CC(N)=O)C(=O)N[C@@H](Cc1ccc(O)cc1)C(N)=O
Take B2: the “pStat3 HTRF IC50” value came to 2.78 nM.

B3: Peptide of SEQ ID NO: 249 (peptide)
peptide: XNTXKXXXXKNX
modifications: Ac-[Pen]-NT-[W(7-Me)]-[Lys(Ac)]-[Pen]-Phe[4-(2-aminoethoxy)]-[2-Nal]-[a-MeLys]-[Lys(Ac)]-N-[Cit]-NH2; Pen-Pen disulfide
In the case of B3, the “pStat3 HTRF IC50” value worked out at 0.639 nM.

B4: Peptide of SEQ ID NO: 278 (peptide)
peptide: XNTXQXXXXKNX
modifications: Ac-[Pen]-N-T-[W(7-Me)]-Q-[Pen]-Phe[4-(2-aminoethoxy)]-[2-Nal]-[a-MeOrn]-[Lys(Ac)]-N-[bA]-NH2; Pen-Pen disulfide
In the case of B4, the “pStat3 HTRF IC50” value turned out to be 0.849 nM.

B5: Peptide of SEQ ID NO: 279 (peptide)
peptide: XNTXQXXXXXXX
modifications: Ac-[Pen]-N-T-[W(7-Me)]-Q-[Pen]-Phe[4-(2-aminoethoxy)]-[2-Nal]-[a-MeLys]-[Cit]-[bA]-[bA]-NH2; Pen-Pen disulfide
For the molecule B5, the “pStat3 HTRF IC50” value is 5.97 nM.

B6: Peptide of SEQ ID NO: 246 (peptide)
peptide: XNTXKXXXXKNX
modifications: Ac-[Pen]-NT-[W(7-Me)]-[Lys(Ac)]-[Pen]-Phe[4-(2-aminoethoxy)]-[2-Nal]-[a-MeLys]-[Lys(Ac)]-N-[NMeArg]-NH2; Pen-Pen disulfide
Consider B6, for which the “pStat3 HTRF IC50” value is 4.83 nM.

B7: Peptide of SEQ ID NO: 257 (peptide)
peptide: Ac-[Pen]NT[Trp(7-Me)][Cit][Pen][AEF][2Nal][αMeK]K(Ac)N[dF]-NH2
modifications: disulfide 1-6
SMILES: CC(=O)NCCCC[C@H](NC(=O)[C@](C)(CCCCN)NC(=O)[C@H](Cc1ccc2ccccc2c1)NC(=O)[C@H](Cc1ccc(OCCN)cc1)NC(=O)[C@H]1NC(=O)[C@H](CCCNC(N)=O)NC(=O)[C@H](Cc2c[nH]c3c(C)cccc23)NC(=O)[C@H]([C@@H](C)O)NC(=O)[C@H](CC(N)=O)NC(=O)[C@@H](NC(C)=O)C(C)(C)SSC1(C)C)C(=O)N[C@@H](CC(N)=O)C(=O)N[C@H](Cc1ccccc1)C(N)=O
Regarding B7, the “pStat3 HTRF IC50” value worked out at 3.88 nM.

B8: Peptide of SEQ ID NO: 276 (peptide)
peptide: XNTXQXXXXKNX
modifications: Ac-[Pen]-N-T-[W(7-Me)]-Q-[Pen]-Phe[4-(2-aminoethoxy)]-[2-Nal]-[DiethylGly]-[Lys(Ac)]-N-[bA]-NH2; Pen-Pen disulfide
As to B8, the “pStat3 HTRF IC50” value is 0.564 nM.

B9: Peptide of SEQ ID NO: 268 (peptide)
peptide: Ac-[Pen]NT[Trp(7-Me)][Cit][Pen][AEF][2Nal][αMeK]K(Ac)[βAla][βAla]-NH2
modifications: disulfide 1-6
SMILES: CC(=O)NCCCC[C@H](NC(=O)[C@](C)(CCCCN)NC(=O)[C@H](Cc1ccc2ccccc2c1)NC(=O)[C@H](Cc1ccc(OCCN)cc1)NC(=O)[C@H]1NC(=O)[C@H](CCCNC(N)=O)NC(=O)[C@H](Cc2c[nH]c3c(C)cccc23)NC(=O)[C@H]([C@@H](C)O)NC(=O)[C@H](CC(N)=O)NC(=O)[C@@H](NC(C)=O)C(C)(C)SSC1(C)C)C(=O)NCCC(=O)NCCC(N)=O
As to B9, the “pStat3 HTRF IC50” value came out at 3.24 nM.

B10: Peptide of SEQ ID NO: 254 (peptide)
peptide: XNTXKXXXXKNP
modifications: Ac-[Pen]-NT-[W(7-Me)]-[Lys(Ac)]-[Pen]-Phe[4-(2-aminoethoxy)]-[2-Nal]-[a-MeLys]-[Lys(Ac)]-N-[(D)Pro]-NH2; Pen-Pen disulfide
Regarding B10, the “pStat3 HTRF IC50” value was found to be 3.65 nM.

B11: Peptide of SEQ ID NO: 262 (peptide)
peptide: Ac-[Pen]NT[Trp(7-Me)][Cit][Pen][AEF][2Nal][αMeK]K(Ac)NT-NH2
modifications: disulfide 1-6
SMILES: CC(=O)NCCCC[C@H](NC(=O)[C@](C)(CCCCN)NC(=O)[C@H](Cc1ccc2ccccc2c1)NC(=O)[C@H](Cc1ccc(OCCN)cc1)NC(=O)[C@H]1NC(=O)[C@H](CCCNC(N)=O)NC(=O)[C@H](Cc2c[nH]c3c(C)cccc23)NC(=O)[C@H]([C@@H](C)O)NC(=O)[C@H](CC(N)=O)NC(=O)[C@@H](NC(C)=O)C(C)(C)SSC1(C)C)C(=O)N[C@@H](CC(N)=O)C(=O)N[C@H](C(N)=O)[C@@H](C)O
In the case of B11, the “pStat3 HTRF IC50” value came out at 0.996 nM.

B12: Peptide of SEQ ID NO: 272 (peptide)
peptide: XNTXKXXXXKHX
modifications: Ac-[Pen]-N-T-[W(7-Me)]-[Lys(Ac)]-[Pen]-Phe[4-(2-aminoethoxy)]-[2-Nal]-[a-MeLys]-[Lys(Ac)]-H-[bA]-NH2; Pen-Pen disulfide
Take B12: the “pStat3 HTRF IC50” value stood at 7.13 nM.

B13: Peptide of SEQ ID NO: 270 (peptide)
peptide: XNTXKXXXXKXX
modifications: Ac-[Pen]-N-T-[W(7-Me)]-[Lys(Ac)]-[Pen]-Phe[4-(2-aminoethoxy)]-[2-Nal]-[a-MeLys]-[Lys(Ac)]-[bA]-[bA]-NH2; Pen-Pen disulfide
Regarding B13, the “pStat3 HTRF IC50” value turned out to be 4.43 nM.

B14: Peptide of SEQ ID NO: 267 (peptide)
peptide: XNTXQXXXXKNX
modifications: Ac-[Pen]-NT-[W(7-Me)]-Q-[Pen]-Phe[4-(2-aminoethoxy)]-[2-Nal]-[a-MeLys]-[Lys(Ac)]-N-[bA]-NH2; Pen-Pen disulfide
With B14, the “pStat3 HTRF IC50” value came to 0.506 nM.

B15: Peptide of SEQ ID NO: 253 (peptide)
peptide: XNTXKXXXXKNP
modifications: Ac-[Pen]-NT-[W(7-Me)]-[Lys(Ac)]-[Pen]-Phe[4-(2-aminoethoxy)]-[2-Nal]-[a-MeLys]-[Lys(Ac)]-N-P-NH2; Pen-Pen disulfide
With B15, the “pStat3 HTRF IC50” value came out at 1.44 nM.
